What is called koff is the first-order rate constant of dissociation. As a reminder, the Kd is a measure of binding affinity in units of concentration. Lower therefore signals a tighter complex.

In experiment [1] the target is KCK-FGF1.E (UniProt P05230). Kind of experiment: BLI; deglycosylated FGFR1-Fc. (In general: Biolayer interferometry detects binding as a change in optical thickness at a sensor tip.)
Experiment [2] addresses T-Fc. Kind of experiment: BLI; deglycosylated FGFR1-Fc.
Experiment [3] concerns the target KCK-FGF1.E (UniProt P05230). Kind of experiment: BLI.
Experiment [4] deals with T-Fc. The experiment in a line: BLI.

B1: de-glycosylated FGFR1-Fc (Fc fusion)
chain: RPSPTLPEQAQPWGAPVEVESFLVHPGDLLQLRCRLRDDVQSINWLRDGVQLAESNRTRITGEEVEVQDSVPADSGLYACVTSSPSGSDTTYFSVNVSDALPSSEDDDDDDDSSSEEKETDNTKPNRMPVAPYWTSPEKMEKKLHAVPAAKTVKFKCPSSGTPNPTLRWLKNGKEFKPDHRIGGYKVRYATWSIIMDSVVPSDKGNYTCIVENEYGSINHTYQLDVVERSPHRPILQAGLPANKTVALGSNVEFMCKVYSDPQPHIQWLKHIEVNGSKIGPDNLPYVQILKTAGVNTTDKEMEVLHLRNVSFEDAGEYTCLAGNSIGLSHHSAWLTVLEALEERPAVMTSPLYLE
modifications: N-glycans enzymatically removed with PNGase F
Take B1: the koff worked out at 0.00222 s⁻¹ in experiment [1] and 0.000448 s⁻¹ in experiment [2]. The same molecule had a Kd in experiment [2] of 0.669 nM.

B2: Fully glycosylated extracellular domain of FGFR1 fused to the Fc fragment of human IgG1: FGFR1 IIIc (FGFR1-Fc) (Fc fusion)
chain: B1 chain
modifications: N-glycosylated (fully glycosylated)
With B2, the Kd in experiment [3] turned out to be 3.19 nM; in experiment [4], 0.246 nM. In experiment [3], this molecule came in with a koff of 0.000304 s⁻¹.

The values above are taken from article PMC9368766 (2022).
